Source: patent US20260041732A1, “USE OF APELIN FOR THE TREATMENT OF LYMPHEDEMA” (INSTITUT NATIONAL DE LA SANTE ET DE LA RECHERCHE MEDICALE, priority 2022, published 2026)

Columns and labels:
[1] = system: Human dermal lymphatic endothelial cells (HDLEC); experiment: Immunoblotting of AKT, ERK and eNOS phosphorylation; assay type: cell-based; conditions: conditioned media
Method: Human dermal lymphatic endothelial cells (HDLEC) (single donor, juvenile foreskin, Promocell, C-12216, >95% of the cells are CD31 positive and podoplanin positive) were cultured in Endothelial Cell Media MV2 (EGM-MV2, Promocell, C-22121). NIH3T3 were cultured in Dulbecco's modified Eagle's medium (DMEM, Sigma, D6429) supplemented with 10% fetal bovine serum (FBS, Gibco, 10270-06) and 1% penicillin-streptomycin. Endothelial cells were used at passage 3-6 and human fibroblasts were used at passage 4-7. Cells were cultured at 37° C. in a 5% CO2 incubator. Culture medium was changed 3 times a week, and the cells were passaged ⅓. For collecting conditioned media, NIH3T3 were grown in 10 cm dishes, after reaching confluence, medium was removed and the cells were washed once with PBS. NIH3T3 were cultured overnight in 5 mL reduced serum medium optiMEM (Gibco), the medium was then collected and used for experiments. HDLEC were treated with 50% conditioned media/50% MV2-05% FBS.
Cells were scrapped and lysed in RIPA buffer (RIPA 2X, Biotech RB4476) supplemented with phosphatase inhibitor (PhosSTOP Easypack, Roche0490687001) and protease inhibitors (protease inhibitor cocktail, Sigma Aldrich). Lysates were centrifuged at 13500 g for 10 minutes at 4° C. Supernatants were then collected and mix with Laemmli buffer containing dithiothreitol (DTT 1 mM). Protein were resolved on 4-15% SDS-PAGE gels and transferred to nitrocellulose membrane (Trans-Blot Turbo RTA transfer kit, #1704271, Biorad). Membranes were blocked for 1h at room temperature in 5% BSA-TBS-T (TBS-0.1% Tween 20) and probed with primary antibody overnight at 4° C. Antibody used are the following: Phospho AKT: AKT-p ser473 (CS #4060S), AKT: santa cruz H136 (S8312), Phospho ERK: ERK1/2-p (MAPKp42/44) (Thr202/Thr204) (cell signalling #9106), ERK ERK1/2-(MAPKp42/44) (Thr202/Thr204) (cell signalling #9102), Phospho eNOS (cell signalling #9571S), eNOS (cell signalling #5880S), E2F8 (Abcam, AB109596), VEGFR3 (RID system AF349), Phospho-VEGFR3 (Affinity AF3676), CCBE1 (Sigma SAB1402017).
After three washes in TBS-T, membranes were probed with HRP-conjugated secondary antibodies at 1/10000 dilution. Signals were visualized with chemiluminescence detection reagent (Sigma) on a Chemidoc (Biorad) digital acquisition system.

[2] = system: Human dermal lymphatic endothelial cells (HDLEC); experiment: RT-qPCR validation of gene induction; assay type: cell-based; conditions: RT-qPCR on HDLEC
Method: Total RNA was prepared using RNeasy kit (Qiagen 74106) according to the supplier's instruction. 1 μg of RNA was retro-transcribed using high-Capacity cDNA Reverse Transcription Kit (Thermo Fisher Scientific, 4368813) containing Multi-Scribe Reverse Transcriptase according to the supplier's instruction. Quantitative real-time PCR was performed using OneGreen FAST qPCR premix (Ozyme, OZYA008) on a StepOne Real-time PCR System (Thermofisher Scientific). All samples were analysed in duplicates. Data was normalized relative to HPRT mRNA levels.

[3] = system: Human dermal lymphatic endothelial cells (HDLEC); experiment: Cell migration, cell junction and cytoskeleton remodeling; assay type: cell-based
[4] = cited from earlier work

B1: APELIN: bioactive peptide apelin, endogenous ligand of APJ; applied to HDLEC as conditioned media from LV-Apelin transduced NIH3T3 or by transduction (protein, listed as Homo sapiens)
chain: MNLRLCVQALLLLWLSLTAVCGGSLMPLPDGNGLEDGNVRHLVQPRGSRNGPGPWQGGRRKFRRQRPRLSHKGPMPF
- eNOS phosphorylation ([1]; HDLEC): observed
- AKT activation (phosphorylation) ([1]; 24 h time course): stimulated Akt phosphorylation after 1 hour
- ERK activation ([1]; 24 h time course): without major effect
- AKT activation (phosphorylation) ([1]; 24 h time course, listed as apelin): lesser extent than the phosphorylation induced by VEGF-C
- CCBE1 induction [2]: strongly confirmed
- endothelial monolayer integrity [3]: no effect
- cell junction or cytoskeleton remodeling ([3]; HDLEC): no effect
- cell migration ([3]; HDLEC): activation of cell migration
- plasma apelin half-life [4]: less than five minutes
